Measured values from the supplement of paper PMC9233669.
This sample holds only a part of the variants without activity.

Tests used:
[1] = test system: biotinyl-Trp-oxazolone; assay: self-aminoacylation, catalytic enhancement (BWO) (fold over background); higher = more active; k-Seq, kA / k0A0; sequences stand for … in GGGAAUGGAUCCACAUCUACGAAUUC…UUCACUGCAGACUUGACGAAGCUG
How it was run: (§1)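 Mutagenized RNA pools (0.43 μM; 21-nt variable region) were treated with 2–1250 μM of each biotinyl-aminoacyl-oxazolone. Conditions were 50 μL HEPES/NaCl/KCl/MgCl2/CaCl2 buffer, 5% acetonitrile, pH 6.9–7.0, room temperature, 90 minutes. Catalytic enhancement, the median kA relative to the uncatalyzed rate, was derived from streptavidin capture, qPCR and Illumina sequencing.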

[2] = test system: biotinyl-Val-oxazolone; assay: self-aminoacylation, catalytic enhancement (BVO) (fold over background); higher = more active; k-Seq, kA / k0A0; sequences stand for … in GGGAAUGGAUCCACAUCUACGAAUUC…UUCACUGCAGACUUGACGAAGCUG
How it was run: as §1

[3] = test system: biotinyl-Phe-oxazolone; assay: self-aminoacylation, catalytic enhancement (BFO) (fold over background); higher = more active; k-Seq, kA / k0A0; sequences stand for … in GGGAAUGGAUCCACAUCUACGAAUUC…UUCACUGCAGACUUGACGAAGCUG
How it was run: as §1

[4] = test system: biotinyl-Met-oxazolone; assay: self-aminoacylation, catalytic enhancement (BMO) (fold over background); higher = more active; k-Seq, kA / k0A0; sequences stand for … in GGGAAUGGAUCCACAUCUACGAAUUC…UUCACUGCAGACUUGACGAAGCUG
How it was run: as §1

[5] = test system: biotinyl-Leu-oxazolone; assay: self-aminoacylation, catalytic enhancement (BLO) (fold over background); higher = more active; k-Seq, kA / k0A0; sequences stand for … in GGGAAUGGAUCCACAUCUACGAAUUC…UUCACUGCAGACUUGACGAAGCUG
How it was run: as §1

[6] = test system: biotinyl-Ile-oxazolone; assay: self-aminoacylation, catalytic enhancement (BIO) (fold over background); higher = more active; k-Seq, kA / k0A0; sequences stand for … in GGGAAUGGAUCCACAUCUACGAAUUC…UUCACUGCAGACUUGACGAAGCUG
How it was run: as §1

| Sequence | self-aminoacylation [1] | self-aminoacylation [2] | self-aminoacylation [3] | self-aminoacylation [4] | self-aminoacylation [5] | self-aminoacylation [6] |
| --- | --- | --- | --- | --- | --- | --- |
| AUAUCCCUGGUCAUCGAGUGA [Fam2.1 aminoacylation ribozyme variant] | 11.8 | 5.25 | 10.5 | 10.3 | 9.81 | 5.36 |
| AUCACACUGGUCAUCGAGUGA [Fam2.1 aminoacylation ribozyme variant] | 8.95 | 4.06 | 42.5 | 6.51 | 6.47 | 4.41 |
| AUCACCCUGCUCAUCGAGUGA [Fam2.1 aminoacylation ribozyme variant] | 3.44 | 1.9 | 19.1 | 2.48 | 2.67 | 1.57 |
| AUCACCCUGGCCAUCGAGUGA [Fam2.1 aminoacylation ribozyme variant] | 7.58 | 3.96 | 32 | 6.12 | 6.04 | 3.91 |
| AUCACCCUGGUCAGCGAGUGA [Fam2.1 aminoacylation ribozyme variant] | 10.5 | 4.3 | 38.2 | 8.22 | 8.3 | 4.13 |
| AUCACCCUGGUCAUCGAGUGG [Fam2.1 aminoacylation ribozyme variant] | 10.2 | 5.02 | 41.8 | 10.3 | 12.7 | 4.14 |
| AUCACCCUGGUCAUCGCGUGA [Fam2.1 aminoacylation ribozyme variant] | 33.8 | 17.1 | 215 | 33.9 | 36.4 | 12.1 |
| AUCACCCUGUUCAUCGAGUGA [Fam2.1 aminoacylation ribozyme variant] | 5.52 | 2.78 | 30 | 4.68 | 5.15 | 2.85 |
| AUCCACCUAAGUCAUCGGGUG [Fam2.2 aminoacylation ribozyme variant] | 9.42 | 7.25 | 90.6 | 11.3 | 14.4 | 6.14 |
| AUCCACCUAGGACAUCGGGUG [Fam2.2 aminoacylation ribozyme variant] | 5.03 | 3.38 | 39.9 | 3.23 | 4.49 | 3.12 |
| AUCCACCUAGGUCAUCAGGUG [Fam2.2 aminoacylation ribozyme variant] | 2.64 | 1.74 | 4.11 | 1.74 | 1.82 | 1.51 |
| AUCCACCUAGGUCAUCCGGUG [Fam2.2 aminoacylation ribozyme variant] | 7.83 | 6.56 | 46.1 | 7.38 | 7.31 | 5.53 |
| AUCCACCUAGGUCAUCGGGGG [Fam2.2 aminoacylation ribozyme variant] | 4.13 | 2.77 | 2.86 | 3.97 | 5.3 | 4.14 |
| AUCCACCUGGGUCAUCGGGUG [Fam2.2 aminoacylation ribozyme variant] | 7.25 | 6.05 | 41.8 | 9.47 | 8.16 | 4.48 |
| AUCCUCCUAGGUCAUCGGGUG [Fam2.2 aminoacylation ribozyme variant] | 9.65 | 7.4 | 68.5 | 11.8 | 12.9 | 6.79 |
| AUCCUUCAAACAAUCGGUCUG [Fam1A.1 aminoacylation ribozyme variant] | 3.9 | 0.688 | 4.27 | 0.822 | 0.809 | 0.755 |
| AUGAACCUAGGUCAUCGGGUG [Fam2.2 aminoacylation ribozyme variant] | 6.44 | 4.28 | 24.6 | 5.97 | 7.54 | 4.29 |
| AUGACCCGGGUCAUCGAGUGA [Fam2.1 aminoacylation ribozyme variant] | 6.53 | 3.55 | 46.3 | 6.73 | 7.47 | 3.9 |
| AUGACCCUAGUCAUCGAGUGA [Fam2.1 aminoacylation ribozyme variant] | 7.34 | 3.27 | 26.6 | 6.07 | 5.61 | 3.13 |
| AUGACCCUCGUCAUCGAGUGA [Fam2.1 aminoacylation ribozyme variant] | 3.73 | 2.06 | 14.7 | 3.35 | 3.43 | 2.05 |
| AUGACCCUGGUAAUCGAGUGA [Fam2.1 aminoacylation ribozyme variant] | 6.37 | 2.8 | 23.9 | 5.08 | 5.39 | 2.7 |
| AUGACCCUGGUCAUCGAAUGA [Fam2.1 aminoacylation ribozyme variant] | 1.44 | 1.35 | 6.66 | 1.46 | 2.06 | 1.59 |
| AUGACCCUGGUCAUUGAGUGA [Fam2.1 aminoacylation ribozyme variant] | 7.49 | 3 | 49.8 | 7.27 | 7.74 | 3.61 |
| AUGACCCUGGUCGUCGAGUGA [Fam2.1 aminoacylation ribozyme variant] | 0.916 | 0.888 | 4.65 | 1.25 | 1.38 | 1.01 |
| AUGACCCUGGUGAUCGAGUGA [Fam2.1 aminoacylation ribozyme variant] | 5 | 2.44 | 27.3 | 4.4 | 5.51 | 2.8 |
